Measured values taken from the supplement of paper PMC9112550, “Optimization of the antimicrobial peptide Bac7 by deep mutational scanning” (BMC Biology, 2022).

tested on: Escherichia coli TOP10; experiment: shrunken log2 fold change of peptide-encoding DNA abundance (4.5 h post-induction vs induction); higher = less antimicrobial activity (less host growth inhibition); settings: time post-induction: 4.5 h; library: site-saturation at positions 5, 18, 19, 20
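Also: peptides expressed intracellularly from a pBAD plasmid library in pooled LB shake-flask culture, induced with 0.3% L-arabinose, DNA abundance read by NGS, three biological replicates, DESeq2 with apeglm shrinkage.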

Sequence | shrunken log2 fold change
RRIRDRPPRLPRPRPRPVQYPRP | -0.0992
RRIRGRPPRLPRPRPRPTSFPRP | 0.449
RRIRSRPPRLPRPRPRPQKDPRP | -0.323
RRIRARPPRLPRPRPRPANNPRP | -0.0617
RRIRHRPPRLPRPRPRPLIMPRP | -0.561
RRIRVRPPRLPRPRPRPKTDPRP | -0.202
RRIRVRPPRLPRPRPRPPPCPRP | 0.358
RRIRERPPRLPRPRPRPIDQPRP | 0.00338
RRIRMRPPRLPRPRPRPLSVPRP | 0.401
RRIRQRPPRLPRPRPRPNAAPRP | 0.0416
RRIRFRPPRLPRPRPRPWDGPRP | 0.00772
RRIRTRPPRLPRPRPRPYKGPRP | -0.0116
RRIRDRPPRLPRPRPRPRTLPRP | 0.14
RRIRWRPPRLPRPRPRPRNKPRP | 0.0794
RRIRVRPPRLPRPRPRPFSMPRP | -0.0688
RRIRSRPPRLPRPRPRPELLPRP | -0.111
RRIRERPPRLPRPRPRPGTPPRP | 0.0316
RRIRERPPRLPRPRPRPQLYPRP | -0.441
RRIRTRPPRLPRPRPRPAKFPRP | -0.00176
RRIRKRPPRLPRPRPRPLFKPRP | 0.11
RRIRTRPPRLPRPRPRPLKKPRP | -0.0468
RRIRMRPPRLPRPRPRPMCGPRP | 0.00224
RRIRCRPPRLPRPRPRPNAEPRP | 0.118
RRIRHRPPRLPRPRPRPTFLPRP | -0.0769
RRIRPRPPRLPRPRPRPTQLPRP | 0.166

Sequence | shrunken log2 fold change
RRIRFRPPRLPRPRPRPRNVPRP | -0.372
RRIRFRPPRLPRPRPRPGMFPRP | 0.0382
RRIRQRPPRLPRPRPRPNASPRP | -0.015
RRIRKRPPRLPRPRPRPMCRPRP | 0.625
RRIRHRPPRLPRPRPRPEQIPRP | 0.0219
RRIRKRPPRLPRPRPRPPEYPRP | 0.0748
RRIRKRPPRLPRPRPRPGSPPRP | 0.166
RRIRRRPPRLPRPRPRPTSCPRP | -0.108
RRIRHRPPRLPRPRPRPPTAPRP | 0.212
RRIRVRPPRLPRPRPRPIPSPRP | -0.165
RRIRCRPPRLPRPRPRPYKHPRP | -1.04
RRIRARPPRLPRPRPRPLCQPRP | 0.42
RRIRLRPPRLPRPRPRPNVGPRP | 0.0116
RRIRLRPPRLPRPRPRPKGWPRP | 0.342
RRIRNRPPRLPRPRPRPNCIPRP | -0.679
RRIRDRPPRLPRPRPRPWMQPRP | -0.0999
RRIRDRPPRLPRPRPRPGGRPRP | 0.569
RRIRWRPPRLPRPRPRPKSHPRP | 0.249
RRIRHRPPRLPRPRPRPVPWPRP | 0.0803
RRIRNRPPRLPRPRPRPWPFPRP | 0.0256
RRIRFRPPRLPRPRPRPYLIPRP | -0.417
RRIRVRPPRLPRPRPRPYTCPRP | -0.164
RRIRDRPPRLPRPRPRPREQPRP | 1.36
RRIRPRPPRLPRPRPRPRFEPRP | 0.0793
RRIRGRPPRLPRPRPRPDDHPRP | 0.18

Sequence | shrunken log2 fold change
RRIRWRPPRLPRPRPRPTQAPRP | 1.45
RRIRDRPPRLPRPRPRPALRPRP | 0.0869
RRIRVRPPRLPRPRPRPRCSPRP | -0.212
RRIRLRPPRLPRPRPRPIFHPRP | -0.192
RRIRFRPPRLPRPRPRPNIAPRP | -0.255
RRIRKRPPRLPRPRPRPMTWPRP | -0.00388
RRIRSRPPRLPRPRPRPWCNPRP | -0.116
RRIRQRPPRLPRPRPRPNATPRP | 0.251
RRIRMRPPRLPRPRPRPYWWPRP | 0.0238
RRIRARPPRLPRPRPRPQGCPRP | 0.03
RRIRYRPPRLPRPRPRPLIRPRP | -0.85
RRIRTRPPRLPRPRPRPQVTPRP | 0.304
RRIRIRPPRLPRPRPRPKEHPRP | -0.15
RRIRNRPPRLPRPRPRPEATPRP | 0.556
RRIRDRPPRLPRPRPRPIFWPRP | 0.0145
RRIRARPPRLPRPRPRPQYFPRP | -0.153
RRIRRRPPRLPRPRPRPGPGPRP | 0.598
RRIRKRPPRLPRPRPRPQFHPRP | 0.119
RRIRVRPPRLPRPRPRPRFDPRP | 0.048
RRIRHRPPRLPRPRPRPSVQPRP | -0.266
RRIRDRPPRLPRPRPRPKKVPRP | 0.241
RRIRIRPPRLPRPRPRPVQTPRP | -0.0646
RRIRIRPPRLPRPRPRPMNSPRP | -0.191
RRIRIRPPRLPRPRPRPNWCPRP | -0.26
RRIRMRPPRLPRPRPRPHWLPRP | -0.183
